Measurements as given in the supplement of paper PMC12042874.
± gives the uncertainty stated by the source.

Assay: amyloid nucleation score (Sup35N fusion, yeast selection) (log enrichment); library NNK2; higher = more nucleation; inactive = no reads after selection
Procedure, shortened: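 Growth for 7 days at 30°C on medium lacking adenine and uracil followed a 24-hour induction with 100 μM copper sulfate of psi-negative yeast expressing peptides of 20 random codons fused to Sup35N. Input and output plasmid inserts were sequenced with Illumina, and sequences with under 100 input reads were excluded. Nucleation score is the DiMSum log enrichment of output over input reads, centred on the mode score of non-aggregating sequences.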

Substance	amyloid nucleation score
QRCISGNTNSVCRLEYRWLM	0.396 ± 0.44
VLNIARVRHDKG	3.7 ± 0.051
SFDFLSLLSDRCLVLDVSPN	0.761 ± 0.46
CCVAGLFEWHWY	8.409 ± 0.081
SVLLWWTHMYGLRMMKGVWG	0.433 ± 0.15
FLKCNLTVDLIVMMKNIFSY	1.02 ± 0.39
NADLMGIKSVKGS	-0.352 ± 1.1
ESSVITGLWHV	-0.081 ± 0.8
VNGVSMMHKIVLVNR	0.058 ± 1
FYSELKLNGMH	-2.04 ± 0.62
TMVMTVQPPLHLFCLDLMHD	2.24 ± 0.12
CGLLGVPFTKLTMLISRRMT	0.286 ± 0.61
HHWRGALGFVCWGRFEERWV	-0.567 ± 0.23
FSDNTVNTQQVEGIYQIDPN	-0.705 ± 0.46
ELWRYDINIERYKSTRSVYH	3.08 ± 0.055
WFIWNVENR	7.15 ± 0.08
MNGVLFMCFIH	3.86 ± 0.085
HTSMWFL	-0.145 ± 1.1
PTQVSDLDNLTDCPRGVLPC	-0.735 ± 0.48
PGHWLTNINISFSACKCLMM	8.227 ± 0.045
SYNRSKCNSTRLMLKSKTAH	1.51 ± 0.47
IGTMVEREKL	0.299 ± 0.39
TNDMVDHVRRSNHDI	0.871 ± 0.31
PSIRWNVIIAMSYLQS	1.89 ± 0.16
ITTAYGGTIEMIRELNVASV	0.42 ± 0.47
CLSSSSVVALGNRLETWIYA	2.73 ± 0.086

Substance	amyloid nucleation score
FVYNQWSYRLRYLTVAIRD	-0.111 ± 0.56
LYLTSNIFLCLIYDL	0.576 ± 0.18
GLISIAVSRRVYLFCLVAPV	-0.541 ± 0.79
YRLIDVYWS	-0.632 ± 1.1
EVVLSAILQHYMSFVSGDDL	-0.201 ± 0.41
YVMNQPDKVWSHIESGNKRH	-1.34 ± 0.62
HMSCMSLSVIFDIILNLCSL	6.097 ± 0.06
CTFFTSTPT	0.343 ± 0.51
TVMCLNLLR	6.454 ± 0.026
LRKVLW	-0.657 ± 0.79
ASIPINHPHRVRLNTSYECI	-0.657 ± 0.56
VMTFMVTRTD	6.111 ± 0.037
LGSYVACPRDTKDYQNNSMC	-0.877 ± 0.48
NSITSRYNGTDGPESVSQ	-0.299 ± 0.79
TMYLFGYEV	1.31 ± 0.35
PTDHSTEVSLRFCCRGVSEL	-0.403 ± 0.46
HLWGTKFMAFVARFV	-0.12 ± 0.79
MLMSNFCF	-0.077 ± 0.74
SCHWNVTRGRWNTKHNLRPK	1.06 ± 0.4
FISTGRRQTFQTRTRSNLWV	0.195 ± 0.37
CAFRASFLLT	0.04 ± 0.34
SCVINM	1.55 ± 0.11
DLSQYDCVNVFALPGWCNNT	4.35 ± 0.048
SISRVVTWNRLRVKACRWAG	0.601 ± 0.28
SGFNNISMKQLWWT	inactive
YEMFHAILCY	-0.101 ± 0.8

Substance	amyloid nucleation score
VSIPLIISTCASLSVCSMTW	8.067 ± 0.034
HCGFDQVLEGLTLR	0.097 ± 0.42
MIDLTLIFLFLVYSD	-0.827 ± 0.62
QGTQWFLLKVSAIVKQLRWT	-0.317 ± 0.79
RASANYRSSYFERSPDVVRE	3.63 ± 0.14
FSGKMN	0.301 ± 0.57
ANQSVYLAEAVYQAGIEGRD	0.358 ± 0.24
SGDMCFWFSQTRHGLFKGIL	-0.019 ± 0.37
YLCSSRITL	1.31 ± 0.47
LFWHLHSNFIADVLLNVRLC	1.13 ± 0.53
GPLFHTTRLRDNHM	3.11 ± 0.11
VSSYCIRML	0.11 ± 0.76
SSNSEDDGNWMMLLSNKYRI	0.559 ± 0.27
NCASWLYGSCACVGLLDLFE	-0.626 ± 0.41
ANTWVKHTLCVGRLQGDWGI	-0.029 ± 0.42
STSGVKAVQISLSSVPWRWD	2.34 ± 0.13
VMDLDAGTCWCISISGLTVR	0.533 ± 0.35
LMHFGMKEEDYWKPCSICIS	inactive
YFCERWMLSCIGGLFVNFLY	0.168 ± 0.15
KEPGERRYGTAASMNYTKVD	-0.71 ± 1
CSHTVFGSVCGFTLFQVH	4.06 ± 0.13
VSAEWLYTGVWPMRLRSSGV	3.95 ± 0.055
PDFFCRSVVNQKMYLKTLHY	-1.03 ± 1.1
GYVRRSIGYSLLSVVS	-0.121 ± 0.46
FYSAVYMLFIVMWFGYSLIN	inactive
WWFTAIGCSVGRLGSFNR	2.06 ± 0.16

Substance	amyloid nucleation score
IVQFYYVMQYRFRYCLDRMH	1.01 ± 0.34
GLRWNKFYKCTEVCMCRGSS	2.58 ± 0.15
GLNISPRMYCF	0.002 ± 0.28
VNCIASSFSLPRRTLSNSMD	inactive
VWVRMRKAVGAVHYRDLRSS	8.893 ± 0.075
NLHFSLNCMIFQPTASRLKH	6.824 ± 0.031
STPHFH	-0.146 ± 1
AAFTRTSP	0.858 ± 0.27
WLQSETIHDVRSLRWVSIKC	0.043 ± 0.74
ELTSLQVMLSNDEMMGGRVN	0.064 ± 0.3
LIQRVRGCWTSYVYGGVWSR	1.66 ± 0.34
CDVRMRVAGRAR	3.19 ± 0.11
KIVVSFWLLPCFGKLFFPSV	-0.618 ± 0.76
SYFMTLIVPGRLLWIDLEGV	-0.823 ± 0.63
QMCIVDTNGRN	0.861 ± 0.6
RRWYYFIEWRKYYQNRTVDQ	-0.321 ± 0.8
YIDGDNYHGILCHSRV	3.86 ± 0.11
SVMSRNGNYVIVLGQCNCYM	8.509 ± 0.022
AIWSVLYGGRYTMPHSIFGA	0.448 ± 0.38
VTVKYRVVTDVLRTMRNDSV	0.297 ± 0.34
QMNVSTYSCNLD	0.044 ± 1.1
AIIPRMLKYRERGKPTKRDT	0.291 ± 0.24
GSYCQWIYF	1.99 ± 0.22
KSQILACYNQLP	0.83 ± 0.48
EVLARR	0.611 ± 0.46
SPGYTMKGFRWWLLSILGAR	inactive

Substance	amyloid nucleation score
QQHYLEEPDDESLVRGCRHW	-0.039 ± 0.54
VYYTVVCGDDRRCIKMCKFC	5.327 ± 0.032
LPGCTTRLHVNLIGALECCK	0.077 ± 0.35
YFRLLISCQNRLLVRKLRAA	-0.021 ± 0.79
CGMNGKTEGEWMGYRKDEGE	6.03 ± 0.077
TTHVNLIKRRGYFRRCVFQL	0.087 ± 0.79
DRAYDVCGRSRRWYQKKLGM	-0.667 ± 0.49
HYWIVRLDAWVSQSVRWCNP	10.95 ± 0.079
FEYIVVESVCRSWWNLVS	-0.051 ± 0.55
TGRTTF	inactive
LDRSRTKSWLGDFWG	-0.074 ± 0.46
FDLNAREHYRASRGDTGTGH	1.16 ± 0.68
FMKSNWIGTT	-0.909 ± 0.39
FNKNDNYYSAR	-0.753 ± 0.78
IKNLRNQGK	-0.745 ± 0.61
HGGFGYR	-0.336 ± 0.49
SKFYNSYSYFTLFVVVLMFD	-0.936 ± 1.1
ALECHIRLKWRVSVGPGVLV	1.17 ± 0.28
VYVFYVSIKVAVFTLTM	3.92 ± 0.041
SSWLYGVYSSYMWMLF	-1.45 ± 1
VNREYLLAVTVILQNVKTEE	8.609 ± 0.036
LWIVMVVRTTQQTYATMGHG	0.955 ± 0.29
LEGFTRA	-0.909 ± 0.36
DCYRPYWKVFIPLVIFGA	-0.076 ± 0.55
